Data taken from patent publication US20200292537A1 (THEUNITEDSTATES OF AMERICA ASREPRESENTEDBYTHE SECRETARYOF …, published 2020).

T1: recombinant RON (cytoplasmic domain, Millipore) (UniProt Q04912 983-1400, limits assumed)
T1 construct: domain: cytoplasmic domain; also called recombinant cytoplasmic RON; cytoplasmic domain of RON
T1 sequence (looked up): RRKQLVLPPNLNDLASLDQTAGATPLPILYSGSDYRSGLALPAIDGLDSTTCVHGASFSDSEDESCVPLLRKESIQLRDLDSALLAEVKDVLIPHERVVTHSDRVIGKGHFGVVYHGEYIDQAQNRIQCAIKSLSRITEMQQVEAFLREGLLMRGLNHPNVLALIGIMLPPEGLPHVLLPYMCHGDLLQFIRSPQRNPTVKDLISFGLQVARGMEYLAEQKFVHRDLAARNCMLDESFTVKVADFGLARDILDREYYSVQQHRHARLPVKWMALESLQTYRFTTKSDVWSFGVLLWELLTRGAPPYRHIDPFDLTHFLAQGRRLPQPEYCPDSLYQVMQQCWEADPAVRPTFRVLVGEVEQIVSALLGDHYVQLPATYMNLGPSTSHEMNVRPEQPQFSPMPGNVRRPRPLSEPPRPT


Tests used:
[1] = biological target: recombinant RON protein (extracellular domain, R&D Systems) (human) (UniProt Q04912); assay: full-length MET sandwich immunoassay; RON extracellular domain at 4 to 400 pM, 10-fold over rMET
recombinant RON protein (extracellular domain, R&D Systems) (human), sequence (Q04912 25-957): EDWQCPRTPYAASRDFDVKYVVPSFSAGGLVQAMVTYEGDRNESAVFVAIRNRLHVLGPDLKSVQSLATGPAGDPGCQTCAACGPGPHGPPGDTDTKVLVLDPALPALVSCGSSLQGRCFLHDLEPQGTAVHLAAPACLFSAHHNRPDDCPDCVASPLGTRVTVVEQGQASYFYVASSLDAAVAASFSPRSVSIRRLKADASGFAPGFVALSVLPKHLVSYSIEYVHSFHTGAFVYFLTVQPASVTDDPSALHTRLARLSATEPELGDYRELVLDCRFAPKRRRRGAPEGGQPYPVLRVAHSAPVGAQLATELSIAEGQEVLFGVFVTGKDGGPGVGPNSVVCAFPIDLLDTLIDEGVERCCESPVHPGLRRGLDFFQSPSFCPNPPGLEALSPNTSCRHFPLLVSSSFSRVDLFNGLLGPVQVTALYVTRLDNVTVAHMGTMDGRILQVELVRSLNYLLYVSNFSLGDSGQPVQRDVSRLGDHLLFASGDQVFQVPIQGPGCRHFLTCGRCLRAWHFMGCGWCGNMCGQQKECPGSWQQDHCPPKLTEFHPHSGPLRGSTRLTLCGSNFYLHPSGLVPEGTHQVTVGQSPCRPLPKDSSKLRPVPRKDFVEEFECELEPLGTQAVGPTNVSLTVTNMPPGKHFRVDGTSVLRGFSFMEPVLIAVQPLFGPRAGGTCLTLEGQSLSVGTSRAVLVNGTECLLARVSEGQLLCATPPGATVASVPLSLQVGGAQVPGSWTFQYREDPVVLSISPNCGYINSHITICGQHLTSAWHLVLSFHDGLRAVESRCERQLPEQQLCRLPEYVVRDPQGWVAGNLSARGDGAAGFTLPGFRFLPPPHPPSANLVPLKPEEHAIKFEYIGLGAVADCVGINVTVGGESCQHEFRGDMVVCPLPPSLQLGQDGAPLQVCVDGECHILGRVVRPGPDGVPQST

[2] = biological target: T1, recombinant RON (cytoplasmic domain, …); assay: Western blot of recombinant RON and preincubation of the antibody with RON
[3] = biological target: pY1235-MET (human MET phosphorylated at tyrosine 1235) (human) (UniProt P08581); assay: interaction analysis with a BIAlite-Biosensor (Pharmacia), range of protein concentrations
pY1235-MET (human MET phosphorylated at tyrosine 1235) (human), sequence (P08581 25-1390 limits assumed): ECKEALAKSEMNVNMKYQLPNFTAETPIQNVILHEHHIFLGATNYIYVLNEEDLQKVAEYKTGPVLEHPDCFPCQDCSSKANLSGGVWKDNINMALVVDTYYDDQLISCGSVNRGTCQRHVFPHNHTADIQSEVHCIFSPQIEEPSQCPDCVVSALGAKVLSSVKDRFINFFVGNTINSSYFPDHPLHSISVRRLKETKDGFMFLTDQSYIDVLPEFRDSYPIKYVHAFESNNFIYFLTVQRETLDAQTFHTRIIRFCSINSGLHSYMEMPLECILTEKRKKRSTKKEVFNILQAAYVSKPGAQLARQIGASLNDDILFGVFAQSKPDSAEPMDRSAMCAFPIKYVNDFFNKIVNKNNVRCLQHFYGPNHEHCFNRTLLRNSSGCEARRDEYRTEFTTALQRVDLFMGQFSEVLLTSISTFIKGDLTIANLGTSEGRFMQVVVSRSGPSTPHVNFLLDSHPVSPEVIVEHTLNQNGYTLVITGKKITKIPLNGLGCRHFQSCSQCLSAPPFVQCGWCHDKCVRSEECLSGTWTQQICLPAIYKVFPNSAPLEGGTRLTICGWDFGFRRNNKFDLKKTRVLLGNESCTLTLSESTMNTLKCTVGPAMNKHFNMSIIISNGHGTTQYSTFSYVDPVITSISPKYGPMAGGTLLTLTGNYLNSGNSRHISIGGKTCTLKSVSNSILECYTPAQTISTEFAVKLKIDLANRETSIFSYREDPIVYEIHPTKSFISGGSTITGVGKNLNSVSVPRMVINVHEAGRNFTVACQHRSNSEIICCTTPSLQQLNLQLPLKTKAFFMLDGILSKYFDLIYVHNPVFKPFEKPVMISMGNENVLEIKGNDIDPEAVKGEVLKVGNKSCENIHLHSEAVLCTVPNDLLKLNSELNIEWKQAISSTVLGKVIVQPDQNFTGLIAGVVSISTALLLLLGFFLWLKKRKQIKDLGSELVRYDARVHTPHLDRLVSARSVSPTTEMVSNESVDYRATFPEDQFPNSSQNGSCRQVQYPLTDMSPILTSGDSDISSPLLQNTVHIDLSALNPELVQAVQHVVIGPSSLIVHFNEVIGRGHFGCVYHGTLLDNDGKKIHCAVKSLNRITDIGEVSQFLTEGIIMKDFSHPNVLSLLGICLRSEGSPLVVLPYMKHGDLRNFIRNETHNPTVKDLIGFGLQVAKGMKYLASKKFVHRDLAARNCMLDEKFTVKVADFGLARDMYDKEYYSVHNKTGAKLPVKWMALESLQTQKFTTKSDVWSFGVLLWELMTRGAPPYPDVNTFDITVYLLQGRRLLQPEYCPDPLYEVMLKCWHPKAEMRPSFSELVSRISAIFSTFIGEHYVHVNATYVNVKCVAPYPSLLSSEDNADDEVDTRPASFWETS

| Molecule | cross-reactivity [1] | binding result [2] | IC50 [3] |
| --- | --- | --- | --- |
| antigen affinity purified goat polyclonal anti-human MET extracellular domain antibody (catalog number AF276, R&D Systems) | < 5% | – | – |
| rabbit monoclonal anti-pY1235-MET antibody, clone 23111 (antibody, V domains shown, Rabbit IgG from a hybridoma (Epitomics), later made as a recombinant protein in HEK293 cells; Biotin-conjugated when used as reporter in the sandwich immunoassay; also called antibody #23111; mAb #23111) VH: QSVEESGGRLVTPGTPLTLTCTVSGFSLSNYAMGWFRQAPGKGLEWIGIISRSGALWYANWANGRFTISKTSTTVDLKITSPTPEDTATYFCARTNYYDGYGGVDAVLTRFDFWGQGTLVTVSS VL: DVVMTQTPSSVEAAVGGTVTIKCQASQSIGGGLSWYQQKAGQPPKLLIYGASTLESGVPSRFKGSGSGTEFTLTISDLECADAATYYCQSNYGSDIRDYGHTFGGGTEVVVKG | – | no binding | 1.2 nM |
